The chains are these.
B1: Serine/threonine-protein kinase VRK1 (Homo sapiens), Q99986 (parent)
chain: MPRVKAAQAGRQSSAKRHLAEQFAVGEIITDMAKKEWKVGLPIGQGGFGCIYLADMNSSESVGSDAPCVVKVEPSDNGPLFTELKFYQRAAKPEQIQKWIRTRKLKYLGVPKYWGSGLHDKNGKSYRFMIMDRFGSDLQKIYEANAKRFSRKTVLQLSLRILDILEYIHEHEYVHGDIKASNLLLNYKNPDQVYLVDYGLAYRYCPEGVHKEYKEDPKRCHDGTIEFTSIDAHNGVAPSRRGDLEILGYCMIQWLTGHLPWEDNLKDPKYVRDSKIRYRENIASLMDKCFPEKNKPGEIAKYMETVKLLDYTEKPLYENLRDILLQGLKAIGSKDDGKLDLSVVENGGLKAKTITKKRKKEIEESKEPGVEDTEWSNTQTEEAIQTRSRTRKRVQK

Data on 1 variant can be found in IntAct's records for PubMed 29340707.

Variants of B1 are the subject of the first assay. As to conditions: with aurkb_human AURKB.
K179E: the “effect of a mutation on the interaction” value was “increasing interaction strength”.

Variants of B1 are the subject of another assay. As to conditions: with aurkb_human AURKB. This is another data set of the same source.
Turning to K179E, the “effect of a mutation on the interaction” value is “disrupting interaction strength”.
